Experimental data taken from article PMC10469194 (Scientific Reports, 2023).

B1: REGN10987-based FabH3 (GS-G4 linker) (other)
VH: QVQLVESGGGVVQPGRSLRLSCAASGFTFSNYAMYWVRQAPGKGLEWVAVISYDGSNKYYADSVKGRFTISRDNSKNTLYLQMNSLRTEDTAVYYCASGSDYGDYLLVYWGQGTLVTVSS
VL: QSALTQPASVSGSPGQSITISCTGTSSDVGGYNYVSWYQQHPGKAPKLMIYDVSKRPSGVSNRFSGSKSGNTASLTISGLQSEDEADYYCNSLTSISTWVFGGGTKLTVL
notes: VH domain of REGN10987, as the VH of the heavy chain of m1; flexible glycine-serine linker, printed only as the formula 'GS-G4' (G: glycine, S: serine); spelled out from that formula; IgG1 heavy chain constant 3 (CH3) domain; VL domain of REGN10987, as the VL of the light chain of m1; E356 is 239 and D399 is 282 in P01857; also called REGN10987 FabH3; FabH3 format; copies: 1 + 1
B2: REGN10987 wild type Fab (Fab, V domains shown)
VH: B1 VH
VL: B1 VL
notes: Fab heavy chain (VH-CH1) of REGN10987; Fab light chain (VL-CL, lambda) of REGN10987; Heavy and light chain are covalently linked (one mass of 47,892 Da by ESI-MS); also called REGN10987 Fab; REGN10987-Fab

Biological target: T1, mutated-truncated DsbC (mtDsbC) tagged SARS-CoV-2 Receptor Binding Domain (RBD) (Severe acute respiratory syndrome …, UniProt P0DTC2, biotin (biotinylated, site not stated))
T1 construct: also called mtDsbC-SARS-CoV-2 wild type; SARS-CoV-2 RBD
Assay: BLI; biotinylated antigen (5 µg/mL) immobilised on Streptavidin biosensors; five concentrations of Fab or FabH3 (3-243 nM); Octet RED384, 30 °C, 1000 rpm, 1X PBS Kinetics Buffer; global fit, 1:1 interaction model
Conditions: both partners purified

| Binder | Kd [nM] |
| --- | --- |
| B1 | 20 ± 2.6 |
| B2 | 43 ± 4.4 |
